This is an account of results in US20090246205A1 (Eli Lilly, published 2009).

In test [1] the target is T1, Recombinant RON-Fc (human, UniProt Q04912 25-571).
T1 construct: also called recombinant human RON receptor; MSP-R; not shown: Fc part of the bought RON-Fc (Sigma-Aldrich)
T1 sequence (looked up): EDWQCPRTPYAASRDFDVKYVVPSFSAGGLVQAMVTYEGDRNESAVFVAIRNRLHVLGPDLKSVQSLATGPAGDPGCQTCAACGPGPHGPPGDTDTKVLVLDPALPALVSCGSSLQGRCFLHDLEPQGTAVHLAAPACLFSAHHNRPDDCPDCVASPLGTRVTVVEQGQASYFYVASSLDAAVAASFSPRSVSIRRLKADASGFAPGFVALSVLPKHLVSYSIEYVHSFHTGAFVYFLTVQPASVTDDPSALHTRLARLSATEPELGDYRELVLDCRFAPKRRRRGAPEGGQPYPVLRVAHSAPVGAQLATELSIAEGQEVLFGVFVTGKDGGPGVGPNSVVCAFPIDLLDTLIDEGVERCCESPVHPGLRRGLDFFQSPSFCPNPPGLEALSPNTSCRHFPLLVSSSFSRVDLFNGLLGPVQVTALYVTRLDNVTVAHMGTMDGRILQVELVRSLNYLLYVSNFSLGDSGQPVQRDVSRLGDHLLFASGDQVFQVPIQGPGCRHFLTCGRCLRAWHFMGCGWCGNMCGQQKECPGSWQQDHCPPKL
Kind of test: ELISA, blocking of the MSP/RON interaction. As for the experimental part:
ELISA to Detect Fab Antibodies That Block the MSP/RON Interaction. Maxi-sorp 96-well microtiter plates (Nunc) were coated with (1 μg/ml×100 μl) MSP (R&D Systems) at RT for 1.5 hours. After washing the wells, they were blocked with 3% PBS/milk. Anti-RON phage antibodies that were converted to Fab or full IgG were pre-incubated with RON-Fc (25 ng/well) at RT for 1 hour. The Fab/RON-Fc or IgG/RON-Fc mixtures were then added to the MSP-coated wells and allowed to incubate for 1.5 h at RT.
ELISA for Determination of IC50 and ED50 The ability of the anti-RON antibodies, IMC-41A10 and IMC-41B12, to bind to recombinant human RON receptor and to block the MSP/RON interaction were measured using ELISA.

The target in test [2] is T1, Recombinant RON-Fc. Kind of test: BIAcore 3000 SPR, RON-Fc immobilized, Fab or antibody injected. As for the experimental part:
BIAcore-Analysis. The binding kinetics of soluble Fab and antibody proteins to RON was determined by using a BIACORE 3000 (BIAcore, Piscataway, N.J.). Recombinant RON-Fc was immobilized onto a sensor chip, and Fab or antibody was injected at various concentrations. Sensorgrams were obtained and evaluated using BIA Evaluation 2.0 software to determine rate constants. The affinity constant, KD, was calculated from the ratio of the rate constants Koff/Kₒₙ. The “Kon, M⁻¹.S⁻¹” and “Koff, S⁻¹” rates of the interaction were used to determine the affinity (Kd, M) of the antibody/receptor interaction. […] For IMC-41B12, they were: 1e-10, 1.7e6 and 1.7e-4.
A general note: In SPR one partner is held on a chip, and binding of the other changes the refractive index at the surface.

Test [3] deals with T1, Recombinant RON-Fc. Kind of test: ELISA, recombinant human RON receptor immobilized on the plate.

B1: IMC-41B12 (antibody, V domains shown)
VH: QVQLQESGPGLVKPSEILSLTCTVSGGSISSHYWSWVRQPPGKGLEWIGYIYYSGSTNYNPSLKSRVTISVDTSKNQFSLNLSSVTAADTAVYYCARIPNYYDRSGYYPGYWYFDLWGRGTLVTVSS
VL: QAVLTQPSSLSAPPGASASLTCTLRSGFNVDSYRISWYQQKPGSPPQYLLRYKSDSDKQQGSGVPSRFSGSKDASANAGILLISGLQSEDEADYYCMIWHSSAWVFGGGTKLTVLR
notes: also called IMC-14B12
As for B1, the IC50 – broadly, the concentration needed to halve the response being measured – with Recombinant RON-Fc [1] was found to be 2000 pM. In the test with Recombinant RON-Fc [2], the Kd (as a rule, the constant that tells how readily two partners part at equilibrium) is 100 pM; the dissociation rate constant (koff) (commonly the rate constant with which the complex falls apart) is 0.00017 s⁻¹; the kon (usually a measure of how fast the partners come together) was found to be 1.7e+06 M⁻¹ s⁻¹. In addition, in the test with Recombinant RON-Fc [3], the EC50 (commonly the concentration giving half of the maximal effect) is 100 pM.

B2: IMC-41A10 (antibody, V domains shown)
VH: EVQLVQSGGGLVKPGGSLRLSCAASGFTFSSYAMHWVRQAPGKGLEWVAVISYDGSNKYYADSVKGRFTISRDNSKNTLYLQMNSLRAEDTAVYYCARFSGWPNNYYYYGMDVWGQGTTVTVSS
VL: DVVMTQSPLSLPVTPGEPASISCRSSQSLLHSNGFNYVDWYLQKPGQSPHLLIYFGSYRASGVPDRFSGSGSGTDFTLKISRVEAEDVGVYYCMQALQTPPWTFGQGTKVEIR
notes: also called anti-RON IMC-41A10 antibody; IMC-14A10
With B2, in the test with Recombinant RON-Fc [1], the IC50 was determined as 2000 pM. In the test with Recombinant RON-Fc [2], the Kd came to 1500 pM, the koff was 0.00013 s⁻¹ and the on-rate constant (kon) was determined as 84000 M⁻¹ s⁻¹. For the same molecule, in the test with Recombinant RON-Fc [3], the half-maximal effective concentration (EC50) was 150 pM.
